Results reported in patent publication US10047131B2, “Peptides and combination of peptides for use in immunotherapy against ovarian cancer and other cancers” (immatics biotechnologies GmbH, priority 2015, dated 2018).

Each substance was assayed against HLA-A*02:01 (Homo sapiens, UniProt P04439, D140Y/D185E/D98H/E176V/E277Q/G131W/G231S/I119V/I121R/I166T/I218V/L300P/L318F/N151K/N90K/P208A/P217A/Q86G/Q94H/R138H/R169H/T345S) (assay: MHC binding assay (UV-ligand exchange, ELISA of exchange yield)). Settings: binding to HLA-A*02:01, UV-ligand exchange.
Procedure, shortened: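 ELISA of β2m retained on streptavidin-captured, 100-fold diluted complexes (HRP anti-β2m, TMB, 450 nm) gives the yield. Complexes come from UV-triggered exchange of a photocleavable placeholder peptide for the candidate, which must bind to stop complex dissociation.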

Peptide exchange (MHC class I binding score, peptide exchange yield) | Substance
“++” (≥20% = ++) | 226 (MLYVVPIYL; listed as Homo sapiens) [compound 226]
“++” (≥20% = ++) | 227 (ALMNTLLYL; listed as Homo sapiens) [compound 227]
“++” (≥20% = ++) | 228 (AMQEYIAVV; listed as Homo sapiens) [compound 228]
“++” (≥20% = ++) | 229 (RLPGPLGTV; listed as Homo sapiens) [compound 229]
“+” (≥10% = +) | 230 (ILVDWLVEV; listed as Homo sapiens) [compound 230]
“++” (≥20% = ++) | 231 (FLSPQQPPLLL; listed as Homo sapiens) [compound 231]
“++” (≥20% = ++) | 232 (ALLEAQDVELYL; listed as Homo sapiens) [compound 232]
“++” (≥20% = ++) | 233 (VLSETLYEL; listed as Homo sapiens) [compound 233]
“++” (≥20% = ++) | 234 (ALMEDTGRQML; listed as Homo sapiens) [compound 234]
“++++” (≥75% = ++++) | 235 (YLNDLHEVLL; listed as Homo sapiens) [compound 235]
“+++” (≥50 = +++) | 236 (GLLEAKVSL; listed as Homo sapiens) [compound 236]
“++++” (≥75% = ++++) | 237 (ALLEASGTLLL; listed as Homo sapiens) [compound 237]
“+++” (≥50 = +++) | 238 (YLISFQTHI; listed as Homo sapiens) [compound 238]
“+++” (≥50 = +++) | 239 (AAFAGKLLSV; listed as Homo sapiens) [compound 239]
“+++” (≥50 = +++) | 240 (ILLEQAFYL; listed as Homo sapiens) [compound 240]
“+++” (≥50 = +++) | 241 (SLVEVNPAYSV; listed as Homo sapiens) [compound 241]
“++” (≥20% = ++) | 242 (AIAYILQGV; listed as Homo sapiens) [compound 242]
“+++” (≥50 = +++) | 243 (LLLNELPSV; listed as Homo sapiens) [compound 243]
“+++” (≥50 = +++) | 244 (SLFGGTEITI; listed as Homo sapiens) [compound 244]
“+++” (≥50 = +++) | 245 (SMIDDLLGV; listed as Homo sapiens) [compound 245]
“+++” (≥50 = +++) | 246 (LLWEVVSQL; listed as Homo sapiens) [compound 246]
“+++” (≥50 = +++) | 247 (VLLPNDLLEKV; listed as Homo sapiens) [compound 247]
“+++” (≥50 = +++) | 248 (FLFPNQYVDV; listed as Homo sapiens) [compound 248]
“+++” (≥50 = +++) | 249 (LLDGFLVNV; listed as Homo sapiens) [compound 249]
“+++” (≥50 = +++) | 250 (ALSEEGLLVYL; listed as Homo sapiens) [compound 250]
“++” (≥20% = ++) | 251 (ALYTGFSILV; listed as Homo sapiens) [compound 251]
“+++” (≥50 = +++) | 252 (LLIGTDVSL; listed as Homo sapiens) [compound 252]
“++” (≥20% = ++) | 253 (GLDAATATV; listed as Homo sapiens) [compound 253]
